The record followed here is patent US20030105008A1 (BRIGHAM AND WOMEN S HOSPITAL, published 2003).

B3: GSTORC5 (GST fused to human ORC5) (other, UniProt O43913 1-435, looked up)
chain: MPHLENVVLCRESQVSILQSLFGERHHFSFPSIFIYGHTASGKTYVTQTLLKTLELPHVFVNCVECFTLRLLLEQILNKLNHLSSSEDGCSTEITCETFNDFVRLFKQVTTAENLKDQTVYIVLDKAEYLRDMEANLLPGFLRLQELADRNVTVLFLSEIVWEKFRPNTGCFEPFVLYFPDYSIGNLQKILSHDHPPEYSADFYAAYINILLGVFYTVCRDLKELRHLAVLNFPKYCEPVVKGEASERDTRKLWRNIEPHLKKAMQTVYLREISSSQWEKLQKDDTDPGQLKGLSAHTHVELPYYSKFILIAAYLASYNPARTDKRFFLKHHGKIKKTNFLKKHEKTSNHLLGPKPFPLDRLLAILYSIVDSRVAPTANIFSQITSLVTLQLLTLVGHDDQLDGPKYKCTVSLDFIRAIARTVNFDIIKYLYDFL
notes: Baculovirus-expressed; not shown: GST tag of the pFB-GST vector

Experiment [1] has as its target T1, ORC2+3 core complex (human, UniProt Q13416 1-577; Q9UBD5 1-711).
T1 construct: Untagged ORC2 and ORC3 co-expressed in Sf9 cells with a GST-tagged third subunit; also called ORC2+3 subcomplex; ORC2-3 complex
T1 sequence (looked up) 1: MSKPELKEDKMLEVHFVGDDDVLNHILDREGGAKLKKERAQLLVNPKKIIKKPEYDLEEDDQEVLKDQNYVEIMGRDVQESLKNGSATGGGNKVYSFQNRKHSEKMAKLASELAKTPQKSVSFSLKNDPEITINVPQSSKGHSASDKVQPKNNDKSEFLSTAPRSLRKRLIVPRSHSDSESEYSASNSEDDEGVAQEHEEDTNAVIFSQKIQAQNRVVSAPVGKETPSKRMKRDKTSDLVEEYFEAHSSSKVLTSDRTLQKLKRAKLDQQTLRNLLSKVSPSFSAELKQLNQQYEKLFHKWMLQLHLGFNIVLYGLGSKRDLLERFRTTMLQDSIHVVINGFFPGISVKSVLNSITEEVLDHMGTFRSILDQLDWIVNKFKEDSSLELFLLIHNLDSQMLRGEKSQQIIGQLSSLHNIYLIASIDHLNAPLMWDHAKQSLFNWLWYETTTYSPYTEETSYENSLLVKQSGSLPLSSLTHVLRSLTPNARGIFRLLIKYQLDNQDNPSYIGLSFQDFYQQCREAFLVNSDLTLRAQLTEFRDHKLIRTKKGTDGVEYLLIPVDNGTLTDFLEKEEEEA
T1 sequence (looked up) 2: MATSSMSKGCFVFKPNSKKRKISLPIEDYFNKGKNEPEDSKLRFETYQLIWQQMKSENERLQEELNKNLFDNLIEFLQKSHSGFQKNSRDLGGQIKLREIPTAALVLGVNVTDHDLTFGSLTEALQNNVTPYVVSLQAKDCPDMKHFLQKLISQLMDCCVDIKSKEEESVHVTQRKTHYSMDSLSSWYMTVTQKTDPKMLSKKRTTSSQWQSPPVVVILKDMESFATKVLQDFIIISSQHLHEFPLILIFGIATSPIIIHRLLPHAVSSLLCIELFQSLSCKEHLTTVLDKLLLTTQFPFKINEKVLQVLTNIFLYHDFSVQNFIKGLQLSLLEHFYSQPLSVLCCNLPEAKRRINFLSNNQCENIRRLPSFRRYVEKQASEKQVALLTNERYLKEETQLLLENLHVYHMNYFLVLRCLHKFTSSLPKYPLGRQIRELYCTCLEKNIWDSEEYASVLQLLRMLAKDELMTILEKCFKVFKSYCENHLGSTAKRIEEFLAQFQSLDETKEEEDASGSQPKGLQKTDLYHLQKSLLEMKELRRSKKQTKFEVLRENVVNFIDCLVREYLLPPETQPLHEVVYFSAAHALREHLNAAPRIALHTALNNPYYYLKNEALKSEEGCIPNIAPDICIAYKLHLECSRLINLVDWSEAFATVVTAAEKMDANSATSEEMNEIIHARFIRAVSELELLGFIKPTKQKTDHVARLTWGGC
Put plainly: co-expression of GSTORC4, ORC2 and ORC3 in Sf9 cells, glutathione beads, immunoblot. As for the experimental part: (§1) Cells were harvested 48 hours post-infection. The cell pellet was washed once in cold phosphate buffered saline (PBS), and subsequently resuspended in hypotonic lysis buffer (10 mM Tris.Cl, pH 7.9; 10 mM KCl; 1.5 mM MgCl₂; 1 mM Phenylmethylsulfonyl Fluoride (PMSF); 2 μg/ml pepstatin; 2 μg/ml leupeptin; 5 μg/ml aprotinin; 1 mM DTT). The cell suspension was homogenized in a Dounce homogenizer using a B-type pestle followed by centrifugation at 3000 rpm for 7 min. The pellet containing the nuclei was lysed in buffer H/0.15 (50 mM HEPES.KOH, pH 7.5; 150 mM KCl; 0.02% NP-40; 5 mM Magnesium acetate; 1 mM EDTA; 1 mM EGTA; 10% glycerol, 1 mM PMSF, 2 μg/ml pepstatin, 2 μg/ml leupeptin, 5 μg/ml aprotinin, 1 mM DTT). The resulting suspension was subjected to ammonium sulfate precipitation (starting with 10% followed by 30% and finally 50%). The pellet following 50% ammonium sulfate cut was resuspended in buffer H/0.0 (no salt) and then dialyzed overnight against buffer H/0.15. […] Proteins were eluted using reduced glutathione elution buffer (50 Mm Tris.Cl, pH 8.0; 20 mM reduced glutathione; 0.01% NP-40; 100 mM NaCl). Gel filtration of glutathione eluate using fast protein liquid chromatography Superose 12 (Amersham Pharmacia Biotech Inc, Piscataway, N.J.) column was performed as described previously (Dhar, S. K. & Dutta, A. J Biol Chem 275:34983-8, 2000).

In experiment [2] the target is T2, complex of GSTORC5, ORC2, ORC3 and ORC4 (human, UniProt O43913 1-435; Q13416 1-577; Q9UBD5 1-711; O43929 1-436).
T2 construct: Complex purified on glutathione beads from Sf9 cells; also called GSTORC5, 2, 3 and 4; ORC2, 3, 4 and 5 core complex; not shown: GST tag of the pFB-GST vector
Put plainly: GST pull-down on glutathione beads from Sf9 cells expressing human ORC1-6 with ORC5 GST tagged; immunoblot. As for the experimental part:
as §1, with “The” for “Cells were harvested 48 hours post-infection. The cell pellet was washed once in cold phosphate buffered saline (PBS), and subsequently resuspended in hypotonic lysis buffer (10 mM Tris.Cl, pH 7.9; 10 mM KCl; 1.5 mM MgCl₂; 1 mM Phenylmethylsulfonyl Fluoride (PMSF); 2 μg/ml pepstatin; 2 μg/ml leupeptin; 5 μg/ml aprotinin; 1 mM DTT). The”
(§2) To purify recombinant six protein human origin recognition complex, Sf9 insect cells were infected with baculoviruses expressing human ORC1-6 subunits.
Background: A western blot detects proteins with antibodies after separation by electrophoresis.

For experiment [3], the target named is T3, ORC2, ORC3 and ORC4 co-expressed with GSTORC5 (human, UniProt Q13416 1-577; Q9UBD5 1-711; O43929 1-436).
T3 construct: The set of untagged subunits that come down with GSTORC5; written as one partner because the pairwise tests of GSTORC5 with each of them were negative; also called ORC2, 3 and 4
The description is as above. The method, then: as §1, with “The” for “Cells were harvested 48 hours post-infection. The cell pellet was washed once in cold phosphate buffered saline (PBS), and subsequently resuspended in hypotonic lysis buffer (10 mM Tris.Cl, pH 7.9; 10 mM KCl; 1.5 mM MgCl₂; 1 mM Phenylmethylsulfonyl Fluoride (PMSF); 2 μg/ml pepstatin; 2 μg/ml leupeptin; 5 μg/ml aprotinin; 1 mM DTT). The”
as §2

Experiment [4] concerns the target T1, ORC2+3 core complex. Put plainly: co-expression of GSTORC5, ORC2 and ORC3 in Sf9 cells, glutathione beads, immunoblot. The method, then:
as §1

Experiment [5] deals with T4, GST (glutathione S transferase), control protein (UniProt P08515 1-218 = GST).
T4 construct: Negative control in the pull-downs; also called control GST
Put plainly: GST pull-down of 35S-labelled in vitro translated ORC3N (control of the GSTORC2C experiment). From the text: (§3) Pull-down assays on glutathione agarose beads were done as described in (Lin, Y. L., et al., J Biol Chem 271:17190-8, 1996).

For experiment [6], the target named is T5, GSTORC2 (GST fused to full-length human ORC2) (human, UniProt Q13416 1-577).
T5 construct: domain: full-length; also called GSTO2; not shown: GST tag of pFB-GST (baculovirus) or pGEX-5X-3 (bacterial)
T5 sequence (looked up): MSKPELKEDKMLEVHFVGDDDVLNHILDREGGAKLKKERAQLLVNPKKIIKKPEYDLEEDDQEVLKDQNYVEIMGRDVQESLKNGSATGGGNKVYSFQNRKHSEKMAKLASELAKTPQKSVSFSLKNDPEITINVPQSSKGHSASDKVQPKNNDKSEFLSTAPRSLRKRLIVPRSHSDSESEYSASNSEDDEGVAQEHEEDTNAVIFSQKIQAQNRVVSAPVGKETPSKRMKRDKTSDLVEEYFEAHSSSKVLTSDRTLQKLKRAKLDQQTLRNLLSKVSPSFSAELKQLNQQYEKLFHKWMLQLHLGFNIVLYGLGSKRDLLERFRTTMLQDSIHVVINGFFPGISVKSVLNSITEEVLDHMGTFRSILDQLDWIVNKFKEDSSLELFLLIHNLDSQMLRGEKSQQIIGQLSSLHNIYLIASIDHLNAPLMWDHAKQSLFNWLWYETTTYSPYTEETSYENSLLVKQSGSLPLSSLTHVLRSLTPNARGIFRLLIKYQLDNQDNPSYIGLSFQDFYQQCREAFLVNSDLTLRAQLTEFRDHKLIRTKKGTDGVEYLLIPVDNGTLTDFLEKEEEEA
Put plainly: GST pull-down of 35S-labelled in vitro translated ORC3N on bacterially expressed GSTORC2.
Source text: as §3

The target in experiment [7] is B3. Put plainly: glutathione beads from Sf9 cells co-expressing GSTORC5, ORC2, ORC4 and ORC3N; western blot. The method, then:
as §1, with “The” for “Cells were harvested 48 hours post-infection. The cell pellet was washed once in cold phosphate buffered saline (PBS), and subsequently resuspended in hypotonic lysis buffer (10 mM Tris.Cl, pH 7.9; 10 mM KCl; 1.5 mM MgCl₂; 1 mM Phenylmethylsulfonyl Fluoride (PMSF); 2 μg/ml pepstatin; 2 μg/ml leupeptin; 5 μg/ml aprotinin; 1 mM DTT). The”

T4 sequence (P08515 whole entry): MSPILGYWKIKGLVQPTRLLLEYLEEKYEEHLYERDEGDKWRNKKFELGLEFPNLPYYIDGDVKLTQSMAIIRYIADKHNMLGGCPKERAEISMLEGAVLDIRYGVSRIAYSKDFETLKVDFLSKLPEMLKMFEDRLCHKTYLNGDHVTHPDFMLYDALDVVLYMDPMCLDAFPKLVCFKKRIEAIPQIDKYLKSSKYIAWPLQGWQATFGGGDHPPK

B1: GSTORC4 (GST fused to human ORC4) (other, UniProt O43929 1-436, looked up)
chain: MSSRKSKSNSLIHTECLSQVQRILRERFCRQSPHSNLFGVQVQYKHLSELLKRTALHGESNSVLIIGPRGSGKTMLINHALKELMEIEEVSENVLQVHLNGLLQINDKIALKEITRQLNLENVVGDKVFGSFAENLSFLLEALKKGDRTSSCPVIFILDEFDLFAHHKNQTLLYNLFDISQSAQTPIAVIGLTCRLDILELLEKRVKSRFSHRQIHLMNSFGFPQYVKIFKEQLSLPAEFPDKVFAEKWNENVQYLSEDRSVQEVLQKHFNISKNLRSLHMLLMLALNRVTASHPFMTAVDLMEASQLCSMDSKANIVHGLSVLEICLIIAMKHLNDIYEEEPFNFQMVYNEFQKFVQRKAHSVYNFEKPVVMKAFEHLQQLELIKPMERTSGNSQREYQLMKLLLDNTQIMNALQKYPNCPTDVRQWATSSLSWL
notes: as for B3
Consider B1, for which, in the experiment with ORC2+3 core complex [1], the binding result is recorded as “no binding”.

B2: human ORC6, untagged (other, UniProt Q9Y5N6 1-252, looked up)
chain: MGSELIGRLAPRLGLAEPDMLRKAEEYLRLSRVKCVGLSARTTETSSAVMCLDLAASWMKCPLDRAYLIKLSGLNKETYQSCLKSFECLLGLNSNIGIRDLAVQFSCIEAVNMASKILKSYESSLPQTQQVDLDLSRPLFTSAALLSACKILKLKVDKNKMVATSGVKKAIFDRLCKQLEKIGQQVDREPGDVATPPRKRKKIVVEAPAKEMEKVEEMPHKPQKDEDLTQDYEEWKRKILENAASAQKATAE
B2: the binding result in experiment [2] is “no binding”. With B3, the binding result (in experiment [3]; in the experiment with ORC2+3 core complex [4]) was “binds” throughout.

B4: ORC3N (ORC3N200), N-terminal 200 amino acids of human ORC3 (other)
chain: MATSSMSKGCFVFKPNSKKRKISLPIEDYFNKGKNEPEDSKLRFETYQLIWQQMKSENERLQEELNKNLFDNLIEFLQKSHSGFQKNSRDLGGQIKLREIPTAALVLGVNVTDHDLTFGSLTEALQNNVTPYVVSLQAKDCPDMKHFLQKLISQLMDCCVDIKSKEEESVHVTQRKTHYSMDSLSSWYMTVTQKTDPKML
notes: also called construct 3
Regarding B4, the binding result in experiment [5] was “no binding”; in experiment [6] it was “binds”; in experiment [7], “no binding”.
